# Source: US7745147 (VIRANATIVE, dated 2010)
# Experiments:
# [1] = molecular target: T1, human interferon alpha 14 (human, UniProt P01570 24-189); test: immunoaffinity column loaded with crude leukocyte interferon alpha; RP-HPLC of eluate
# T1 construct: One entry serves both the natural leukocyte protein and the bought recombinant protein; also called α14; IFN-α14
# Description: The antibodies were all bound to CNBr-activated Sepharose gel. […] Impurities and unbound material were removed from the column by washing with buffer. Interferon alpha was eluted with citric-acid buffer, pH2. Unbound, flow-through fractions, and eluate fractions were analysed for interferon alpha using a specific ELISA. The eluate fraction was analysed for its complement of interferon alpha proteins using reversed-phase HPLC (RP-HPLC). Interferon alpha specific activity was determined using a cytopathic protective effect assay with MDBK cells. All samples were analysed twice. The experiments were repeated with a second batch of concentrated crude leukocyte interferon alpha.
# Rather, the interferon alpha protein pattern is compared to assess whether all the expected peaks are present.
# [2] = molecular target: concentrated crude leukocyte interferon alpha; test: immunoaffinity chromatography of crude leukocyte interferon alpha (Example 1)
# [3] = molecular target: concentrated crude leukocyte interferon alpha; test: capacity of immunoaffinity gel, 7 mg antibody/mL CNBr-activated Sepharose FF
# [4] = molecular target: concentrated crude leukocyte interferon alpha; test: pilot-scale immunoaffinity chromatography, crude interferon batch K-543, experiment P-429
# [5] = molecular target: T2, human interferon alpha 1 (human, UniProt P0DY56 24-189); test: immunoaffinity chromatography (Examples 1, 3, 4 and 5)
# T2 construct: also called α1; IFN-α1
# [6] = molecular target: concentrated crude leukocyte interferon alpha; test: immunoaffinity chromatography, antibody on CNBr-Sepharose; interferon alpha ELISA of fractions
# [7] = molecular target: concentrated crude leukocyte interferon alpha; test: pilot-scale immunoaffinity chromatography, crude interferon from lab fermenter, experiment P-434
# [8] = molecular target: concentrated crude leukocyte interferon alpha; test: immunoaffinity chromatography, antibody on CNBr-Sepharose; interferon alpha ELISA of fractions; second row for this antibody
# [9] = molecular target: T3, human interferon alpha 16 (human, UniProt P05015 24-189); test: 3-A3-2 immunoaffinity column, 10,000 IU load; Daudi cell anti-proliferative assay of fractions
# T3 construct: also called α16; IFN-α16
# [10] = molecular target: T4, human interferon alpha 5 (human, UniProt P01569 24-189, limits assumed); test: as above
# T4 construct: also called α5; IFN-α5
binder,measurement,setting,value
"Monoclonal antibody 3-A3-2 (antibody, mouse IgG1, V domains shown, Murine IgG1/kappa from hybridoma 3-A3-2 (ECACC 05030201); also called monoclonal 3-A3-2; 3A32 Ab) VH: QVQLQESGTVLARPGASVKMSCKASGYSFTTYWMHWVKQRPGQGLEWIGVIYPGNGDTTYNQKFKDKAKLTAVTSANTAYMELSSLTNEDSAVYFCTRNYKYDYYTMDYWGQGTTVTVSS VL: DIVLTQSPASLAVSLGQRATISCRASKSVSTSGHSYMHWYQQKPGQTPKLLIYLASNLESGVPARFSGSGSGTDFTLNIHPVEEEDAATYYCQHSGELPFTFGSGTKLEIK",binding result,[1],binds
same,Flow-through (%),[2],< 5%
same,interferon capacity,[3],22.5 MIU/ml gel
same,IFN-α eluate yield (%),[4],73%
same,binding result,[5],binds
same,Flow-through (%),[6],1%
same,eluate (IU),[6],16.5 IU
same,recovery (%),[6],66%
same,IFN-α eluate yield (%),[7],70%
same,Flow-through (%),[8],5%
same,eluate (IU),[8],17 IU
same,recovery (%),[8],61%
same,binding result,[9],binds
same,binding result,[10],binds
